In paper PMC9122090 (Structure (London, England : 1993), 2021):
Blank lines part the entries; values can stand above or below the binder they belong to.

Assays:
[1] = biological target: T1, Nes2G SR11–12-FHOD1-N complex (human, UniProt Q9Y613 1-339; Q8WXH0 1425-1649); experiment: SEC
T1 sequence (looked up) 1: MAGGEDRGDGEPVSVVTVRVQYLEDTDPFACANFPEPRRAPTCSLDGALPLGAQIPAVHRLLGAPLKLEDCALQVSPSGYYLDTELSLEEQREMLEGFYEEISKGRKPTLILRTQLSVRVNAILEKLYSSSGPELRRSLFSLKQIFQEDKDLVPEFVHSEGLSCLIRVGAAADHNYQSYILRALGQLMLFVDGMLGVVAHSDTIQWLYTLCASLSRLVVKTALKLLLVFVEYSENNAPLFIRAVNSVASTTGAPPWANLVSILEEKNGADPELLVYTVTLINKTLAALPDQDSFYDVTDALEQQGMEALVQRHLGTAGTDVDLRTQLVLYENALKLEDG
T1 sequence (looked up) 2: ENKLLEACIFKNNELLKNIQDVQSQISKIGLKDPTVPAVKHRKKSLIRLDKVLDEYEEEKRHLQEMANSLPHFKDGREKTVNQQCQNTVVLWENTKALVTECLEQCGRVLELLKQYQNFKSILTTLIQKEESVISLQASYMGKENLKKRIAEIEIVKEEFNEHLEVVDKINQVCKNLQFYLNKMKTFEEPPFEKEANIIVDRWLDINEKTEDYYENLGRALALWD

[2] = biological target: T2, FHOD1-N (human FHOD1 residues 1–339), wild type (human, UniProt Q9Y613 1-339); experiment: SEC
T2 sequence (looked up): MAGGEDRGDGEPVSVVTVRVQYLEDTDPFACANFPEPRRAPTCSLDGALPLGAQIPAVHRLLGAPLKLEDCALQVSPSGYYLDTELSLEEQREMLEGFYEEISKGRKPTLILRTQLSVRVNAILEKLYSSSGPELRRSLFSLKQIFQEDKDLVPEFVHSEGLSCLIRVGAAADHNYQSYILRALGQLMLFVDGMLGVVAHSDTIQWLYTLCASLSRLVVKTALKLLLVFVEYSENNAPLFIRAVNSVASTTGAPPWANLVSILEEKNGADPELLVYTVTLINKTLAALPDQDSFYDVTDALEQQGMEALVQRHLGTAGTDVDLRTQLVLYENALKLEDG

[3] = biological target: T2, FHOD1-N (human FHOD1 residues 1–339), …; experiment: BLI
[4] = biological target: T2, FHOD1-N (human FHOD1 residues 1–339), …; experiment: SEC; remark: listed apart in the source

B1: FHOD1 DAD domain (residues 1052–1164), released from MBP-DAD by 3C protease (domain or fragment, human, UniProt Q9Y613 1052-1164, looked up)
chain: SMKSLLTSRPEDTTHNRRSRGMVQSSSPIMPTVGPSTASPEEPPGSSLPSDTSDEIMDLLVQSVTKSSPRALAARERKRSRGNRKSLRRTLKSGLGDDLVQALGLSKGPGLEV
- binding result [1]: binds
- binding result [2]: binds

B2: N-terminally AVI-tagged, biotinylated Nes1G SR17–18 (residues 1976–2200) (domain or fragment, human, UniProt Q8NF91 1976-2200, looked up)
chain: LAVLKKAFQDQKEELLKSIEDIEERTDKERLKEPTRQALQQRLRVFNQLEDELNSHEHELCWLKDKAKQIAQKDVAFAPEVDREINRLEVTWDDTKRLIHENQGQCCGLIDLMREYQNLKSAVSKVLENASSVIVTRTTIKDQEDLKWAFSKHETAKNKMNYKQKDLDNFTSKGKHLLSELKKIHSSDFSLVKTDMESTVDKWLDVSEKLEENMDRLRVSLSIWD
modifications: biotin on the AVI sequence
- Kd [3]: 85 nM

B3: Nes1G SR18 (human nesprin-1 giant residues 2076–2200) (domain or fragment, UniProt Q8NF91-1 2076-2200, looked up)
chain: ENQGQCCGLIDLMREYQNLKSAVSKVLENASSVIVTRTTIKDQEDLKWAFSKHETAKNKMNYKQKDLDNFTSKGKHLLSELKKIHSSDFSLVKTDMESTVDKWLDVSEKLEENMDRLRVSLSIWD
- binding result [4]: binds

B5: N-terminally AVI-tagged, biotinylated Nes2G SR11–12 (residues 1425–1649) (domain or fragment, human, UniProt Q8WXH0 1425-1649, looked up)
chain: ENKLLEACIFKNNELLKNIQDVQSQISKIGLKDPTVPAVKHRKKSLIRLDKVLDEYEEEKRHLQEMANSLPHFKDGREKTVNQQCQNTVVLWENTKALVTECLEQCGRVLELLKQYQNFKSILTTLIQKEESVISLQASYMGKENLKKRIAEIEIVKEEFNEHLEVVDKINQVCKNLQFYLNKMKTFEEPPFEKEANIIVDRWLDINEKTEDYYENLGRALALWD
modifications: biotin on the AVI sequence
- Kd [3]: 375 nM

The remaining lines, values ahead:

- binding result [3]: binds
B4: N-terminally AVI-tagged, biotinylated Nes1G SR18 (residues 2076–2200) (domain or fragment, human, UniProt Q8NF91 2076-2200, looked up)
chain: ENQGQCCGLIDLMREYQNLKSAVSKVLENASSVIVTRTTIKDQEDLKWAFSKHETAKNKMNYKQKDLDNFTSKGKHLLSELKKIHSSDFSLVKTDMESTVDKWLDVSEKLEENMDRLRVSLSIWD
modifications: biotin on the AVI sequence

- binding result [4]: binds
B6: Nes1G SR17–18 (human nesprin-1 giant residues 1976–2200) (domain or fragment, UniProt Q8NF91-1 1976-2200, looked up)
chain: LAVLKKAFQDQKEELLKSIEDIEERTDKERLKEPTRQALQQRLRVFNQLEDELNSHEHELCWLKDKAKQIAQKDVAFAPEVDREINRLEVTWDDTKRLIHENQGQCCGLIDLMREYQNLKSAVSKVLENASSVIVTRTTIKDQEDLKWAFSKHETAKNKMNYKQKDLDNFTSKGKHLLSELKKIHSSDFSLVKTDMESTVDKWLDVSEKLEENMDRLRVSLSIWD

- binding result [4]: binds
B7: Nes2G SR11–12 (human nesprin-2 giant residues 1425–1649) (domain or fragment, UniProt Q8WXH0-1 1425-1649, looked up)
chain: ENKLLEACIFKNNELLKNIQDVQSQISKIGLKDPTVPAVKHRKKSLIRLDKVLDEYEEEKRHLQEMANSLPHFKDGREKTVNQQCQNTVVLWENTKALVTECLEQCGRVLELLKQYQNFKSILTTLIQKEESVISLQASYMGKENLKKRIAEIEIVKEEFNEHLEVVDKINQVCKNLQFYLNKMKTFEEPPFEKEANIIVDRWLDINEKTEDYYENLGRALALWD
